Test results from paper PMC7862258.

B1: fibulin-3 (F3): N249Q (protein)
parent chain: MLKALFLTMLTLALVKSQDTEETITYTQCTDGYEWDPVRQQCKDIDECDIVPDACKGGMKCVNHYGGYLCLPKTAQIIVNNEQPQQETQPAEGTSGATTGVVAASSMATSGVLPGGGFVASAAAVAGPEMQTGRNNFVIRRNPADPQRIPSNPSHRIQCAAGYEQSEHNVCQDIDECTAGTHNCRADQVCINLRGSFACQCPPGYQKRGEQCVDIDECTIPPYCHQRCVNTPGSFYCQCSPGFQLAANNYTCVDINECDASNQCAQQCYNILGSFICQCNQGYELSSDRLNCEDIDECRTSSYLCQYQCVNEPGKFSCMCPQGYQVVRSRTCQDINECETTNECREDEMCWNYHGGFRCYPRNPCQDPYILTPENRCVCPVSNAMCRELPQSIVYKYMSIRSDRSVPSDIFQIQATTIYANTINTFRIKSGNENGEFYLRQTSPVSAMLVLVKSLSGPREHIVDLEMLTVSSIGTFRTSSVLRLTIIVGPFSF
B2: fibulin-3 (F3): D49A/N249Q (protein)
parent chain: B1 parent chain
B3: fibulin-3 (F3): R140W/N249Q (protein)
parent chain: B1 parent chain
B4: fibulin-3 (F3): I220F/N249Q (protein)
parent chain: B1 parent chain
B5: fibulin-3 (F3): N249Q/R387Q (protein)
parent chain: B1 parent chain

Legend:
[1] = anti-FLAG western blot of conditioned media, HEK293A; settings: glycan lost; for expression_or_secretion, other: relative secretion, % of N249Q F3: control: same variant with N249 glycan (normalised to WT F3), arms normalised to N249Q F3
[2] = anti-FLAG western blot of cell lysate (intracellular level), HEK293A; settings: glycan lost; control: WT F3

Protein | expression_or_secretion, percent_of_wt ([1]; control: WT F3) | expression_or_secretion, percent_of_wt [2] | expression_or_secretion, other: relative secretion, % of N249Q F3 [1]
B1 | no change | no change | –
B2 | – | – | no change
B3 | – | – | no change
B4 | – | – | no change
B5 | – | – | no change
